Experimental data taken from US20160319034A1 (ONCOMED PHARMACEUTICALS, published 2016).
Each block holds one molecule with its values, some of them ahead of it.

How the values were obtained:
[1] = target: full-length human MET (FL-MET) on cells (human) (UniProt P08581); test: FACS: inhibition of biotin-HGF binding to MET-transfected HEK-293T cells, agent at 10 µg/ml
[2] = target: human MET (soluble analyte in the Biacore assay) (human) (UniProt P08581); test: SPR (Biacore 2000): agent captured via goat anti-human antibody, human MET injected
Chain of human MET (soluble analyte in the Biacore assay) (human) (P08581 25-932 limits assumed): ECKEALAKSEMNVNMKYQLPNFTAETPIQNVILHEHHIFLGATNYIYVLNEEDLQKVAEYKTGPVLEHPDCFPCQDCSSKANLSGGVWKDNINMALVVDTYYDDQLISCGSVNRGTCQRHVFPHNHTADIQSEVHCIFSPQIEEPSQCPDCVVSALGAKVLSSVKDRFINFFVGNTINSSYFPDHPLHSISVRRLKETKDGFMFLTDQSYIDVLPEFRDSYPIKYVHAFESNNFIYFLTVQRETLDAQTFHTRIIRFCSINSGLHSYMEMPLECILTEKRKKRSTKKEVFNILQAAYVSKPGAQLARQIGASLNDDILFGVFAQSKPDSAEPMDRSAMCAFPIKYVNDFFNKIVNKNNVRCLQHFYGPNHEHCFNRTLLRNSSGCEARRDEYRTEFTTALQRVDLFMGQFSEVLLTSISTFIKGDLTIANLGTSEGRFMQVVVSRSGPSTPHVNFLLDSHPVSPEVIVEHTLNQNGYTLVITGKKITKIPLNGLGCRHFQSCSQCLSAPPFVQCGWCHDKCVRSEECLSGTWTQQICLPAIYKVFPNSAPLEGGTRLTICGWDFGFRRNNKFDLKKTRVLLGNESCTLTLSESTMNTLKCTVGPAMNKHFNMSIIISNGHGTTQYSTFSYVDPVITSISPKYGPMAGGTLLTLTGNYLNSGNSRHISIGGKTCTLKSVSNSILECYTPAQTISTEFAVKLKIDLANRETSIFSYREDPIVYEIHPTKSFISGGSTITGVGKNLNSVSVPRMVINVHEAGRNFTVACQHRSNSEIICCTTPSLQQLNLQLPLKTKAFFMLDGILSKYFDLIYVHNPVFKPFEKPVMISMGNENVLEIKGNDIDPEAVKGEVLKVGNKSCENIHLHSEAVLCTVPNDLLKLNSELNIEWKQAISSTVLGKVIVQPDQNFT

[3] = target: full-length human MET (FL-MET) on cells (human) (UniProt P08581); test: FACS blocking assay on MET-transfected HEK-293T cells; blocked ligand: biotinylated HGF, PE-streptavidin
[4] = target: full-length human MET (FL-MET) on cells (human) (UniProt P08581); test: FACS: inhibition of biotin-HGF binding to MET-transfected HEK-293T cells, agent at 0.16 µg/ml
[5] = target: T1, human MET (soluble analyte in the Biacore assay) (human, UniProt P08581 25-932); test: SPR (Biacore 2000): agent captured via goat anti-human antibody, human MET injected
T1 sequence (P08581 25-932 limits assumed): as above
Description: (§1) The KD of monovalent version of anti-MET antibody 73R009, monovalent anti-MET antibody 5D5, and anti-MET/FZD8-Fc bispecific agent 315B06 were determined using a Biacore 2000 system from Biacore Life Sciences (GE Healthcare). A goat anti-human antibody (Invitrogen H10500) was coupled to a carboxymethyl-dextran (CM5) SPR chip using standard amine-based chemistry (NHS/EDC) and blocked with ethanolamine. Antibodies were diluted to a concentration of 10 μg/ml in HBS-P-BSA (0.01M HEPES pH7.4, 0.15M NaCl, 0.005% v/v Polysorbate 20, 10 μg/ml BSA) and captured onto the chip via the anti-human antibody. Human MET was serially diluted 2-fold from 300 nM to 37.5 nM in HBS-P-BSA and injected sequentially over the captured anti-MET antibodies. MET association and dissociation was measured at each concentration. After each antigen injection 5 μl of 100 mM H₃P0₄ was injected to remove the antigen-antibody complex and a subsequent injection performed. Kinetic data were collected over time and were fit using the simultaneous global fit equation to yield affinity constants (KD values) for each agent.
In addition, the bispecific agent 315B06 appeared to have stronger affinity for human MET than anti-MET antibody 5D5.

[6] = target: T1, human MET (soluble analyte in the …); test: SPR (Biacore 2000) as described in Example 1
Description: as §1
Antibody 73R010 was used in a variation of the anti-MET/FZD8-Fc bispecific agent, and this variant bispecific agent is referred to as 315B07.

[7] = target: T2, human Sema mutant Mut96,99 (F96L and Q99R; Sema-hCD4TM-GFP) on cells (human, UniProt P08581 25-515); test: FACS on transfected HEK-293T cells
T2 construct: not shown: human CD4 transmembrane domain and GFP (display and reporter carrier at the C end)
T2 sequence (P08581 25-515 F96L/Q99R limits assumed): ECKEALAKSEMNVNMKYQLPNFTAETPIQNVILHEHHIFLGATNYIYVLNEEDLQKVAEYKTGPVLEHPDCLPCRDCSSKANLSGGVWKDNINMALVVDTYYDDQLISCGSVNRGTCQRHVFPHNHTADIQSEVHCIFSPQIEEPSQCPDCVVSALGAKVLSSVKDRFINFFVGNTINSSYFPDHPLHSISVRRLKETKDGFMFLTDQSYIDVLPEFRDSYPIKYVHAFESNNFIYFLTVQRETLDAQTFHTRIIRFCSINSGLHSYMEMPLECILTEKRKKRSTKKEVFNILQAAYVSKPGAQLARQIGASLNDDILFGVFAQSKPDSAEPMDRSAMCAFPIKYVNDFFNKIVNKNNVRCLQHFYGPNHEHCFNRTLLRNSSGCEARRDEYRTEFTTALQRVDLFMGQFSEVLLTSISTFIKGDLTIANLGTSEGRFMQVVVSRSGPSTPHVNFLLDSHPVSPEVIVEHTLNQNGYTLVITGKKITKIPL
Description: (§2) To identify the MET epitope recognized by the anti-MET/FZD8-Fc bispecific agent, epitope mapping was performed. […] Therefore, site-directed mutagenesis was performed to create a series of human Sema mutants. Kunkel mutagenesis was used to replace specific amino acids in the human Sema sequence with the corresponding amino acids found in the mouse Sema sequence at predicted antibody-binding sites. The human Sema mutants were: Mut96,99 (F96L and Q99R), Mut96 (F96L), Mut99 (Q99R), Mut328 (Q328N), Mut331 (R331K), and Mut337,338 (L337P and N338S).
(§3) Mammalian expression plasmid vectors encoding a wild-type human Sema, a wild-type mouse Sema, a mouse/human Sema mutant wherein the 5′ end is mouse (aa 1-331) and the 3′ end is human (aa 332-515), and the human Sema mutants outlined above were generated by standard recombinant technology. These constructs comprise the transmembrane domain of a human CD4 protein and GFP (for example, Sema-hCD4TM-GFP). These expression constructs allow for expression of the Sema domain on the cell surface, as well as expression of GFP to monitor expression. […] The cells were washed and bound bispecific agents were detected with a secondary anti-human Fc antibody conjugated to allophycocyanin (APC). […] Labeled cells were analyzed by flow cytometry to measure the binding of 315B07 and 5D5/FZD8-Fc to the series of Sema mutants.

[8] = target: T3, human Sema mutant Mut99 (Q99R; Sema-hCD4TM-GFP) on cells (human, UniProt P08581 25-515); test: FACS on transfected HEK-293T cells
T3 construct: not shown: human CD4 transmembrane domain and GFP (display and reporter carrier at the C end)
T3 sequence (P08581 25-515 Q99R limits assumed): as the sequence (P08581 25-515 F96L/Q99R limits assumed) above, with L72F counted along it
Description: as §2, §3

Chain of full-length human MET (FL-MET) on cells (human) (P08581 25-1390 limits assumed): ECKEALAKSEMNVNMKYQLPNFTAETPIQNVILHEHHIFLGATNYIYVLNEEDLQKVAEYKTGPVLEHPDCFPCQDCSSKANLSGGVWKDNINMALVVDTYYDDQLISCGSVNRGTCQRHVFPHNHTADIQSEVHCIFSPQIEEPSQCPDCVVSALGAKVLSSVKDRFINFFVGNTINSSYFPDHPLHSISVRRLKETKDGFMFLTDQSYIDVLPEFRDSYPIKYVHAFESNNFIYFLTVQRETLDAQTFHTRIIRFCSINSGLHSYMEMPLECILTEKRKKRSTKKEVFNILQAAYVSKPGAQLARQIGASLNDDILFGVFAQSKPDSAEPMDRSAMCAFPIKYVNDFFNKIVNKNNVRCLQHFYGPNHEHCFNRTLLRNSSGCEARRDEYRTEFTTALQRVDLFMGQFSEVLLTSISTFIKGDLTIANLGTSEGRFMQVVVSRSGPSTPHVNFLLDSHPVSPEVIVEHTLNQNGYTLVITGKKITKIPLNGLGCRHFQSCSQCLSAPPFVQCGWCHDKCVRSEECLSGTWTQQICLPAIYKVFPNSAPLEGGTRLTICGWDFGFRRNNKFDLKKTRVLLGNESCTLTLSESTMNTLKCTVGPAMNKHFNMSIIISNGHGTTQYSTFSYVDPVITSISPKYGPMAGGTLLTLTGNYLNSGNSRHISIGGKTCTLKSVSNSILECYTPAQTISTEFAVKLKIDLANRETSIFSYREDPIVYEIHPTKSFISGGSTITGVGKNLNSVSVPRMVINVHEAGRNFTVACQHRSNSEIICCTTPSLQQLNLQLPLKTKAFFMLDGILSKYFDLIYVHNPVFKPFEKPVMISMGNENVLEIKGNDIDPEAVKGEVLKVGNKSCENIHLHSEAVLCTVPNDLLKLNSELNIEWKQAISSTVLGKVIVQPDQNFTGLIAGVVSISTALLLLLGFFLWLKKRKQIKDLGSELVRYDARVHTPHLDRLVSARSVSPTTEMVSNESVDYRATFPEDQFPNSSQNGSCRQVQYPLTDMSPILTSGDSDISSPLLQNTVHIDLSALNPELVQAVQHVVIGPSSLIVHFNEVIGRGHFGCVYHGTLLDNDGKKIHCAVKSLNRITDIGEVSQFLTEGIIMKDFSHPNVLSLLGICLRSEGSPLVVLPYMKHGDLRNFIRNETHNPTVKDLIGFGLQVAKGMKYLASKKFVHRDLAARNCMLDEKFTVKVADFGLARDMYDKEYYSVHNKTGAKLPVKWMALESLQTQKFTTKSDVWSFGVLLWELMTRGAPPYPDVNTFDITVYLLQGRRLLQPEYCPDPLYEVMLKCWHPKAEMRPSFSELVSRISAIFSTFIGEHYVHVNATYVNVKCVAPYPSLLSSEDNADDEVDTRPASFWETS

percent reduction of HGF binding to MET [1]: 70% | Kd [2]: 7.2 nM | % Binding of hHGF at 0.16 ug/ml antibody [3]: 14.3% | % Binding of hHGF at 0.3 ug/ml antibody [3]: 10.6% | % Binding of hHGF at 0.625 ug/ml antibody [3]: 12% | % Binding of hHGF at 1.25 ug/ml antibody [3]: 8.54% | % Binding of hHGF at 2.5 ug/ml antibody [3]: 9.61% | % Binding of hHGF at 5 ug/ml antibody [3]: 6.67% | % Binding of hHGF at 10 ug/ml antibody [3]: 6.31% | % Inhibition of hHGF binding at 0.3 ug/ml antibody [3]: 47% | % Inhibition of hHGF binding at 0.625 ug/ml antibody [3]: 40% | % Inhibition of hHGF binding at 1.25 ug/ml antibody [3]: 57% | % Inhibition of hHGF binding at 2.5 ug/ml antibody [3]: 52% | % Inhibition of hHGF binding at 5 ug/ml antibody [3]: 67% | percent reduction of HGF binding to MET [4]: 28%
Molecule: monovalent anti-MET antibody 5D5

Kd [5]: 1.8 nM
B1: anti-MET/FZD8-Fc bispecific agent 315B06 (bispecific antibody, human IgG2, kappa)
heavy: QVQLQESGPGLVKPSETLSLTCTVTGTTITASYAWSWIRQPPGKGLEWMGYISYSGGTDYNPSLKSRITISRDTFKNQFSLKLSSVTAADTATYYCARKGAYWGQGTLVTVSSASTKGPSVFPLAPCSRSTSESTAALGCLVKDYFPEPVTVSWNSGALTSGVHTFPAVLQSSGLYSLSSVVTVPSSNFGTQTYTCNVDHKPSNTKVDKTVERKCCVECPPCPAPPVAGPSVFLFPPKPKDTLMISRTPEVTCVVVDVSHEDPEVQFNWYVDGVEVHNAKTKPREEQFNSTFRVVSVLTVVHQDWLNGKEYKCKVSNKGLPAPIEKTISKTKGQPREPQVYTLPPSREKMTKNQVSLTCLVKGFYPSDIAVEWESNGQPENNYKTTPPMLKSDGSFFLYSKLTVDKSRWQQGNVFSCSVMHEALHNHYTQKSLSLSPGK
light: DIVLTQSPATLSASPGEKVTLTCSASSSVSSSYLYWYQQKPGQAPKLLIYSTSNLASGVPARFSGSGSGTSYSLTISSLEPEDFATYYCHQWSSYPYTFGGGTKLEIKRTVAAPSVFIFPPSDEQLKSGTASVVCLLNNFYPREAKVQWKVDNALQSGNSQESVTEQDSKDSTYSLSSTLTLSKADYEKHKVYACEVTHQGLSSPVTKSFNRGEC
chain: ASAKELACQEITVPLCKGIGYNYTYMPNQFNHDTQDEAGLEVHQFWPLVEIQCSPDLKFFLCSMYTPICLEDYKKPLPPCRSVCERAKAGCAPLMRQYGFAWPDRMRCDRLPEQGNPDTLCMDYNRTDLTTTKVDKTVERKSCVECPPCPAPPVAGPSVFLFPPKPKDTLMISRTPEVTCVVVDVSHEDPEVQFNWYVDGVEVHNAKTKPREEQFNSTFRVVSVLTVVHQDWLNGKEYKCKVSNKGLPAPIEKTISKTKGQPREPQVYTLPPSREEMTKNQVSLTCLVEGFYPSDIAVEWESNGQPENNYKTTPPMLDSDGSFFLYSELTVDKSRWQQGNVFSCSVMHEALHNHYTQKSLSLSPGK
notes: Heterodimer with one anti-MET arm (heavy and light chain) and one FZD8-Fc soluble receptor arm; also called bispecific anti-MET/FZD8-Fc agent 315B06; 351B06 [sic]

Kd [6]: 0.126 nM | binding result [7]: no binding | binding result [8]: no binding
B2: anti-MET/FZD8-Fc bispecific agent 315B07 (bispecific antibody, human IgG2, kappa)
heavy: QVQLQESGPGLVKPSETLSLTCTVSGTTITASYAWSWIRQPPGKGLEWMGYISYSGGTDYNPSLKSRVTISRDTFKNQFSLKLSSVTAADTAVYYCARKGAYWGQGTLVTVSSASTKGPSVFPLAPCSRSTSESTAALGCLVKDYFPEPVTVSWNSGALTSGVHTFPAVLQSSGLYSLSSVVTVPSSNFGTQTYTCNVDHKPSNTKVDKTVERKCCVECPPCPAPPVAGPSVFLFPPKPKDTLMISRTPEVTCVVVDVSHEDPEVQFNWYVDGVEVHNAKTKPREEQFNSTFRVVSVLTVVHQDWLNGKEYKCKVSNKGLPAPIEKTISKTKGQPREPQVYTLPPSREKMTKNQVSLTCLVKGFYPSDIAVEWESNGQPENNYKTTPPMLKSDGSFFLYSKLTVDKSRWQQGNVFSCSVMHEALHNHYTQKSLSLSPGK
light: EIVLTQSPATLSLSPGERATLSCSASSSVSSSYLYWYQQKPGQAPRLLIYSTSNLASGIPARFSGSGSGTDFTLTISRLEPEDFAVYYCHQWSSYPYTFGQGTKLEIKRTVAAPSVFIFPPSDEQLKSGTASVVCLLNNFYPREAKVQWKVDNALQSGNSQESVTEQDSKDSTYSLSSTLTLSKADYEKHKVYACEVTHQGLSSPVTKSFNRGEC
chain: ASAKELACQEITVPLCKGIGYNYTYMPNQFNHDTQDEAGLEVHQFWPLVEIQCSPDLKFFLCSMYTPICLEDYKKPLPPCRSVCERAKAGCAPLMRQYGFAWPDRMRCDRLPEQGNPDTLCMDYNRTDLTTTKVDKTVERKSCVECPPCPAPPVAGPSVFLFPPKPKDTLMISRTPEVTCVVVDVSHEDPEVQFNWYVDGVEVHNAKTKPREEQFNSTFRVVSVLTVVHQDWLNGKEYKCKVSNKGLPAPIEKTISKTKGQPREPQVYTLPPSREEMTKNQVSLTCLVEGFYPSDIAVEWESNGQPENNYKTTPPMLDSDGSFFLYSELTVDKSRWQQGNVFSCSVMHEALHNHYTQKSLSLSPGK
notes: Heterodimer with one humanized anti-MET arm (73R010) and one FZD8-Fc soluble receptor arm; also called OMP-315B07; 3151307 [sic]

Kd [5]: 1.1 nM
B3: anti-MET antibody 73R009 (bivalent “parental” antibody) (antibody, human IgG2, kappa, V domains shown)
VH: QVQLQESGPGLVKPSETLSLTCTVTGTTITASYAWSWIRQPPGKGLEWMGYISYSGGTDYNPSLKSRITISRDTFKNQFSLKLSSVTAADTATYYCARKGAYWGQGTLVTVSS
VL: DIVLTQSPATLSASPGEKVTLTCSASSSVSSSYLYWYQQKPGQAPKLLIYSTSNLASGVPARFSGSGSGTSYSLTISSLEPEDFATYYCHQWSSYPYTFGGGTKLEIKR

Kd [5]: 1.4 nM
B4: monovalent version of anti-MET antibody 73R009 (antibody, V domains shown)
VH: QVQLQESGPGLVKPSETLSLTCTVTGTTITASYAWSWIRQPPGKGLEWMGYISYSGGTDYNPSLKSRITISRDTFKNQFSLKLSSVTAADTATYYCARKGAYWGQGTLVTVSS
VL: DIVLTQSPATLSASPGEKVTLTCSASSSVSSSYLYWYQQKPGQAPKLLIYSTSNLASGVPARFSGSGSGTSYSLTISSLEPEDFATYYCHQWSSYPYTFGGGTKLEIK
notes: Only the 73R009 variable regions can be tied to this molecule; also called monovalent anti-MET antibody 73R009; monovalent version of 73R009
